Source: ChEMBL document CHEMBL2074013, “Effect of 17 beta-estradiol-D-17 beta-glucuronide on the rat organic anion transporting polypeptide 2-mediated transport differs depending on substrates” (Drug Metab Dispos, 2002)

Substrate: C[C@H]1O[C@@H](O[C@H]2[C@@H](O)C[C@H](O[C@H]3[C@@H](O)C[C@H](O[C@H]4CC[C@@]5(C)[C@H](CC[C@@H]6[C@@H]5C[C@@H](O)[C@]5(C)[C@@H](C7=CC(=O)OC7)CC[C@]65O)C4)O[C@@H]3C)O[C@@H]2C)C[C@H](O)[C@@H]1O
Test: cells, lysate or membranes named
Description: TP_TRANSPORTER: uptake in Oatp2-expressing LLC-PK1 cells

B1: Solute carrier organic anion transporter family member 1A4 (Rattus norvegicus) (protein)
chain: MGKSEKRVATHGVRCFAKIKMFLLALTCAYVSKSLSGTYMNSMLTQIERQFGIPTSIVGLINGSFEIGNLLLIIFVSYFGTKLHRPIMIGVGCAVMGLGCFLISLPHFLMGQYEYETILPTSNVSSNSFFCVENRSQTLNPTQDPSECVKEMKSLMWIYVLVGNIIRGIGETPIMPLGISYIEDFAKSENSPLYIGILETGMTIGPLIGLLLASSCANIYVDIESVNTDDLTITPTDTRWVGAWWIGFLVCAGVNILTSFPFFFFPKTLPKEGLQENVDGTENAKEKKHRKKAKEEKRGITKDFFVFMKSLSCNPIYMLFILISVLQFNAFINSFTFMPKYLEQQYGKSTAEVVFLMGLYMLPPICLGYLIGGLIMKKFKVTVKKAAHLAFWLCLSEYLLSFLSYVMTCDNFPVAGLTTSYEGVQHQLYVENKVLADCNTRCNCSTNTWDPVCGDNGLAYMSACLAGCEKSVGTGTNMVFQNCSCIQSSGNSSAVLGLCNKGPDCANKLQYFLIIAIFGCFIYSLAGIPGYMVLLRCIKSEEKSLGVGLHAFCIRILAGIPAPIYFGALIDRTCLHWGTLKCGEPGACRMYDINSFRRLYLGLPAALRGASFVPAFFILRLTRTFQFPGDIESSKTDHAEMKLTLKESECTEVLRSKVTED
- Km: 1.07 µM
